Biological target: T1, TNFR1 (Homo sapiens, UniProt P19438)
T1 chain: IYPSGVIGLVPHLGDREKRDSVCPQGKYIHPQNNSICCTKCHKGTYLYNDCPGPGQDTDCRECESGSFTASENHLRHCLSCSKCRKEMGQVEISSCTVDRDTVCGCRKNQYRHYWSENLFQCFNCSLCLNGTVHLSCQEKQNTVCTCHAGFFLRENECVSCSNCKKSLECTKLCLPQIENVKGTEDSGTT
Test: yeast display SC50

B1: R50T (designed binder)
chain: MTLQELLREEALRRAEAEAFRYALELLAEKFPEQKEYLLDLAEEIESQITSLSGVDVEDVRKFLDKEWAWVKELLAEHPAELAEVEAARAARLAELRAEVEAKVAA
For B1, the “apparent Kd (screen)” value was 0.49 nM.

B2: A88M (designed binder)
chain: MTLQELLREEALRRAEAEAFRYALELLAEKFPEQKEYLLDLAEEIESQIRSLSGVDVEDVRKFLDKEWAWVKELLAEHPAELAEVEAMRAARLAELRAEVEAKVAA
With B2 the “apparent Kd (screen)” value was 0.718 nM.

B3: I45S (designed binder)
chain: MTLQELLREEALRRAEAEAFRYALELLAEKFPEQKEYLLDLAEESESQIRSLSGVDVEDVRKFLDKEWAWVKELLAEHPAELAEVEAARAARLAELRAEVEAKVAA
B3 was tested, and the “apparent Kd (screen)” value was 7.78 nM.

B4: L82E (designed binder)
chain: MTLQELLREEALRRAEAEAFRYALELLAEKFPEQKEYLLDLAEEIESQIRSLSGVDVEDVRKFLDKEWAWVKELLAEHPAEEAEVEAARAARLAELRAEVEAKVAA
With B4 the “apparent Kd (screen)” value was 2.73 nM.

B5: K66W (designed binder)
chain: MTLQELLREEALRRAEAEAFRYALELLAEKFPEQKEYLLDLAEEIESQIRSLSGVDVEDVRKFLDWEWAWVKELLAEHPAELAEVEAARAARLAELRAEVEAKVAA
For B5, the “apparent Kd (screen)” value was 0.539 nM.

B6: L3V (designed binder)
chain: MTVQELLREEALRRAEAEAFRYALELLAEKFPEQKEYLLDLAEEIESQIRSLSGVDVEDVRKFLDKEWAWVKELLAEHPAELAEVEAARAARLAELRAEVEAKVAA
For B6, the “apparent Kd (screen)” value was 0.593 nM.

B7: E29I (designed binder)
chain: MTLQELLREEALRRAEAEAFRYALELLAIKFPEQKEYLLDLAEEIESQIRSLSGVDVEDVRKFLDKEWAWVKELLAEHPAELAEVEAARAARLAELRAEVEAKVAA
In the case of B7, the “apparent Kd (screen)” value is reported as 1.16 nM.

B8: R21Q (designed binder)
chain: MTLQELLREEALRRAEAEAFQYALELLAEKFPEQKEYLLDLAEEIESQIRSLSGVDVEDVRKFLDKEWAWVKELLAEHPAELAEVEAARAARLAELRAEVEAKVAA
In the case of B8, the “apparent Kd (screen)” value is reported as 0.539 nM.

B9: E29D (designed binder)
chain: MTLQELLREEALRRAEAEAFRYALELLADKFPEQKEYLLDLAEEIESQIRSLSGVDVEDVRKFLDKEWAWVKELLAEHPAELAEVEAARAARLAELRAEVEAKVAA
B9 was tested, and the “apparent Kd (screen)” value was 0.49 nM.

B10: A23V (designed binder)
chain: MTLQELLREEALRRAEAEAFRYVLELLAEKFPEQKEYLLDLAEEIESQIRSLSGVDVEDVRKFLDKEWAWVKELLAEHPAELAEVEAARAARLAELRAEVEAKVAA
With B10 the “apparent Kd (screen)” value was 0.653 nM.

B11: A80L (designed binder)
chain: MTLQELLREEALRRAEAEAFRYALELLAEKFPEQKEYLLDLAEEIESQIRSLSGVDVEDVRKFLDKEWAWVKELLAEHPLELAEVEAARAARLAELRAEVEAKVAA
B11 was tested, and the “apparent Kd (screen)” value was 0.446 nM.

B12: L75P (designed binder)
chain: MTLQELLREEALRRAEAEAFRYALELLAEKFPEQKEYLLDLAEEIESQIRSLSGVDVEDVRKFLDKEWAWVKELPAEHPAELAEVEAARAARLAELRAEVEAKVAA
In the case of B12, the “apparent Kd (screen)” value is reported as 2.48 nM.

B13: H78R (designed binder)
chain: MTLQELLREEALRRAEAEAFRYALELLAEKFPEQKEYLLDLAEEIESQIRSLSGVDVEDVRKFLDKEWAWVKELLAERPAELAEVEAARAARLAELRAEVEAKVAA
For B13, the “apparent Kd (screen)” value was 0.49 nM.

B14: A102S (designed binder)
chain: MTLQELLREEALRRAEAEAFRYALELLAEKFPEQKEYLLDLAEEIESQIRSLSGVDVEDVRKFLDKEWAWVKELLAEHPAELAEVEAARAARLAELRAEVESKVAA
With B14 the “apparent Kd (screen)” value was 0.79 nM.

B15: Y22H (designed binder)
chain: MTLQELLREEALRRAEAEAFRHALELLAEKFPEQKEYLLDLAEEIESQIRSLSGVDVEDVRKFLDKEWAWVKELLAEHPAELAEVEAARAARLAELRAEVEAKVAA
B15 was tested, and the “apparent Kd (screen)” value was 0.49 nM.

B16: A105F (designed binder)
chain: MTLQELLREEALRRAEAEAFRYALELLAEKFPEQKEYLLDLAEEIESQIRSLSGVDVEDVRKFLDKEWAWVKELLAEHPAELAEVEAARAARLAELRAEVEAKVFA
For B16, the “apparent Kd (screen)” value was 0.869 nM.

B17: A94E (designed binder)
chain: MTLQELLREEALRRAEAEAFRYALELLAEKFPEQKEYLLDLAEEIESQIRSLSGVDVEDVRKFLDKEWAWVKELLAEHPAELAEVEAARAARLEELRAEVEAKVAA
In the case of B17, the “apparent Kd (screen)” value is reported as 0.539 nM.

B18: E77D (designed binder)
chain: MTLQELLREEALRRAEAEAFRYALELLAEKFPEQKEYLLDLAEEIESQIRSLSGVDVEDVRKFLDKEWAWVKELLADHPAELAEVEAARAARLAELRAEVEAKVAA
In the case of B18, the “apparent Kd (screen)” value is reported as 0.653 nM.

B19: L7N (designed binder)
chain: MTLQELNREEALRRAEAEAFRYALELLAEKFPEQKEYLLDLAEEIESQIRSLSGVDVEDVRKFLDKEWAWVKELLAEHPAELAEVEAARAARLAELRAEVEAKVAA
With B19 the “apparent Kd (screen)” value was 24.4 nM.

B20: L93F (designed binder)
chain: MTLQELLREEALRRAEAEAFRYALELLAEKFPEQKEYLLDLAEEIESQIRSLSGVDVEDVRKFLDKEWAWVKELLAEHPAELAEVEAARAARFAELRAEVEAKVAA
For B20, the “apparent Kd (screen)” value was 0.539 nM.

B21: H78V (designed binder)
chain: MTLQELLREEALRRAEAEAFRYALELLAEKFPEQKEYLLDLAEEIESQIRSLSGVDVEDVRKFLDKEWAWVKELLAEVPAELAEVEAARAARLAELRAEVEAKVAA
For B21, the “apparent Kd (screen)” value was 0.869 nM.

B22: A94H (designed binder)
chain: MTLQELLREEALRRAEAEAFRYALELLAEKFPEQKEYLLDLAEEIESQIRSLSGVDVEDVRKFLDKEWAWVKELLAEHPAELAEVEAARAARLHELRAEVEAKVAA
In the case of B22, the “apparent Kd (screen)” value is reported as 0.446 nM.

B23: R92W (designed binder)
chain: MTLQELLREEALRRAEAEAFRYALELLAEKFPEQKEYLLDLAEEIESQIRSLSGVDVEDVRKFLDKEWAWVKELLAEHPAELAEVEAARAAWLAELRAEVEAKVAA
In the case of B23, the “apparent Kd (screen)” value is reported as 0.539 nM.

B24: R89W (designed binder)
chain: MTLQELLREEALRRAEAEAFRYALELLAEKFPEQKEYLLDLAEEIESQIRSLSGVDVEDVRKFLDKEWAWVKELLAEHPAELAEVEAAWAARLAELRAEVEAKVAA
In the case of B24, the “apparent Kd (screen)” value is reported as 0.956 nM.

B25: L27S (designed binder)
chain: MTLQELLREEALRRAEAEAFRYALELSAEKFPEQKEYLLDLAEEIESQIRSLSGVDVEDVRKFLDKEWAWVKELLAEHPAELAEVEAARAARLAELRAEVEAKVAA
In the case of B25, the “apparent Kd (screen)” value is reported as 0.593 nM.

B26: R97W (designed binder)
chain: MTLQELLREEALRRAEAEAFRYALELLAEKFPEQKEYLLDLAEEIESQIRSLSGVDVEDVRKFLDKEWAWVKELLAEHPAELAEVEAARAARLAELWAEVEAKVAA
For B26, the “apparent Kd (screen)” value was 0.49 nM.

— paper PMC12416549 (2024)
